Here are results for two molecules from patent US20220298218A1 (ANTAG THERAPEUTICS, published 2022).

Where two headings read alike, the source gives them in different places. *1 amine or outer side, *2 acyl side, *3 side chain or, on linkers, in order; H or OH if unused. Where no end group is shown, it is not given here. Side-chain parts run from the residue outwards. The star is where a group is joined. C16 diacid = O=C(O)CCCCCCCCCCCCCCC(=O)*; γGlu = O=C(O)[C@H](CCC(=O)[*:2])N[*:1]; AEEA = NCCOCCOCC(=O)O

Assay [1] deals with T1, human GIP receptor (human, UniProt P48546 22-466).
T1 sequence (looked up): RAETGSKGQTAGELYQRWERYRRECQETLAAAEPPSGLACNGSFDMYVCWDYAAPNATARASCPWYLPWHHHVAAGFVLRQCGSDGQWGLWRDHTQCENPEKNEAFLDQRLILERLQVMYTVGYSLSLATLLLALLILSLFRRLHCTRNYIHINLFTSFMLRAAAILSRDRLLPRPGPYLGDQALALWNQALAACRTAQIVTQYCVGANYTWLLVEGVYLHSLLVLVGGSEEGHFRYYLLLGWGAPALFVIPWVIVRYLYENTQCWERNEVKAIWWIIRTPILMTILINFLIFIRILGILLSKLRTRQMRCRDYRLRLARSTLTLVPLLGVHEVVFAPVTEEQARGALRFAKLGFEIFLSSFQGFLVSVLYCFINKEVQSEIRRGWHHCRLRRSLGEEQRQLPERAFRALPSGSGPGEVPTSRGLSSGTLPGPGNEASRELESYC
The assay can be described thus: cell-based or functional assay.

In assay [2] the target is T1, human GIP receptor. The assay can be described thus: cell-based or functional assay. The source holds these as a separate data set.

B1: AT475 (peptide)
peptide: FISDYSIAMDKIK(C16 diacid)QQDFVNWLLAQKGPSSGAPPPS-OH
modifications: N-terminus assumed
SMILES: CC[C@H](C)[C@H](NC(=O)[C@H](CO)NC(=O)[C@H](Cc1ccc(O)cc1)NC(=O)[C@H](CC(=O)O)NC(=O)[C@H](CO)NC(=O)[C@@H](NC(=O)[C@@H](N)Cc1ccccc1)[C@@H](C)CC)C(=O)N[C@@H](C)C(=O)N[C@@H](CCSC)C(=O)N[C@@H](CC(=O)O)C(=O)N[C@@H](CCCCN)C(=O)N[C@H](C(=O)N[C@@H](CCCCNC(=O)CCCCCCCCCCCCCCC(=O)O)C(=O)N[C@@H](CCC(N)=O)C(=O)N[C@@H](CCC(N)=O)C(=O)N[C@@H](CC(=O)O)C(=O)N[C@@H](Cc1ccccc1)C(=O)N[C@H](C(=O)N[C@@H](CC(N)=O)C(=O)N[C@@H](Cc1c[nH]c2ccccc12)C(=O)N[C@@H](CC(C)C)C(=O)N[C@@H](CC(C)C)C(=O)N[C@@H](C)C(=O)N[C@@H](CCC(N)=O)C(=O)N[C@@H](CCCCN)C(=O)NCC(=O)N1CCC[C@H]1C(=O)N[C@@H](CO)C(=O)N[C@@H](CO)C(=O)NCC(=O)N[C@@H](C)C(=O)N1CCC[C@H]1C(=O)N1CCC[C@H]1C(=O)N1CCC[C@H]1C(=O)N[C@@H](CO)C(=O)O)C(C)C)[C@@H](C)CC
Regarding B1, in the assay with human GIP receptor [1], the “cAMP antagonism” value stood at 4 nM, the “cAMP antagonism % inhib” value was 100% and the cAMP antagonism log was -8.4 log M. Also, in the assay with human GIP receptor [2], the “cAMP agonism % Emax” value came to 0%, the “cAMP antagonism” value was found to be 7.9 nM, the “cAMP antagonism % inhib” value stood at 96% and the “cAMP antagonism pIC50” value is 8.1.

B2: AT423 (peptide)
peptide: SGTFISDYSIAMDRIK([AEEA-AEEA-γGlu-C16 diacid])QQDFVNWLLAQRGRRNDW-OH
modifications: N-terminus assumed
SMILES: CC[C@H](C)[C@H](NC(=O)[C@H](CO)NC(=O)[C@H](Cc1ccc(O)cc1)NC(=O)[C@H](CC(=O)O)NC(=O)[C@H](CO)NC(=O)[C@@H](NC(=O)[C@H](Cc1ccccc1)NC(=O)[C@@H](NC(=O)CNC(=O)[C@@H](N)CO)[C@@H](C)O)[C@@H](C)CC)C(=O)N[C@@H](C)C(=O)N[C@@H](CCSC)C(=O)N[C@@H](CC(=O)O)C(=O)N[C@@H](CCCNC(=N)N)C(=O)N[C@H](C(=O)N[C@@H](CCCCNC(=O)COCCOCCNC(=O)COCCOCCNC(=O)CC[C@H](NC(=O)CCCCCCCCCCCCCCC(=O)O)C(=O)O)C(=O)N[C@@H](CCC(N)=O)C(=O)N[C@@H](CCC(N)=O)C(=O)N[C@@H](CC(=O)O)C(=O)N[C@@H](Cc1ccccc1)C(=O)N[C@H](C(=O)N[C@@H](CC(N)=O)C(=O)N[C@@H](Cc1c[nH]c2ccccc12)C(=O)N[C@@H](CC(C)C)C(=O)N[C@@H](CC(C)C)C(=O)N[C@@H](C)C(=O)N[C@@H](CCC(N)=O)C(=O)N[C@@H](CCCNC(=N)N)C(=O)NCC(=O)N[C@@H](CCCNC(=N)N)C(=O)N[C@@H](CCCNC(=N)N)C(=O)N[C@@H](CC(N)=O)C(=O)N[C@@H](CC(=O)O)C(=O)N[C@@H](Cc1c[nH]c2ccccc12)C(=O)O)C(C)C)[C@@H](C)CC
Regarding B2, in the assay with human GIP receptor [1], the “cAMP antagonism” value was 6 nM, the “cAMP antagonism % inhib” value came to 95% and the cAMP antagonism log is -8.2 log M. Besides, in the assay with human GIP receptor [2], the “cAMP agonism % Emax” value turned out to be 0%, the “cAMP antagonism” value worked out at 79.4 nM, the “cAMP antagonism % inhib” value worked out at 71% and the “cAMP antagonism pIC50” value came out at 7.1.
